The values that follow are results of earlier work, collected in patent US8349318B2, “Use of specifically engineered enzymes to enhance the efficacy of prodrugs” (The Board of Trustees of the University of Illinois, priority 2008, dated 2013).

B1: dNK: Drosophila melanogaster nucleoside kinase, SEQ ID NO:3 (protein)
chain: MAEAASCARKGTKYAEGTQPFTVLIEGNIGSGKTTYLNHFEKYKNDICLLTEPVEKWRNVNGVNLLELMYKDPKKWAMPFQSYVTLTMLQSHTAPTNKKLKIMERSIFSARYCFVENMRRNGSLEQGMYNTLEEWYKFIEESIHVQADLIIYLRTSPEVAYERIRQRARSEESCVPLKYLQELHELHEDWLIHQRRPQSCKVLVLDADLNLENIGTEYQRSESSIFDAISSNQQPSPVLVSPSKRQRVAR
modifications: Drosophila melanogaster
For B1, the “kcat for dC phosphorylation” value (Knecht et al., 2002) was 16.5 s⁻¹. Moreover, where the note is “compared with dCK”, the “efficiency for dC phosphorylation, higher than dCK” value is 2,500 fold.
